From article doi:10.1101/2025.04.02.646830 (bioRxiv, 2025)
* marks the point of attachment. 6xHis = N-terminal hexahistidine tag, N[C@@H](Cc1c[nH]cn1)C(=O)N[C@@H](Cc1c[nH]cn1)C(=O)N[C@@H](Cc1c[nH]cn1)C(=O)N[C@@H](Cc1c[nH]cn1)C(=O)N[C@@H](Cc1c[nH]cn1)C(=O)N[C@@H](Cc1c[nH]cn1)C(=O)*

T1: FtsA (E. coli, UniProt P0ABH0 1-420)
T1 sequence (looked up): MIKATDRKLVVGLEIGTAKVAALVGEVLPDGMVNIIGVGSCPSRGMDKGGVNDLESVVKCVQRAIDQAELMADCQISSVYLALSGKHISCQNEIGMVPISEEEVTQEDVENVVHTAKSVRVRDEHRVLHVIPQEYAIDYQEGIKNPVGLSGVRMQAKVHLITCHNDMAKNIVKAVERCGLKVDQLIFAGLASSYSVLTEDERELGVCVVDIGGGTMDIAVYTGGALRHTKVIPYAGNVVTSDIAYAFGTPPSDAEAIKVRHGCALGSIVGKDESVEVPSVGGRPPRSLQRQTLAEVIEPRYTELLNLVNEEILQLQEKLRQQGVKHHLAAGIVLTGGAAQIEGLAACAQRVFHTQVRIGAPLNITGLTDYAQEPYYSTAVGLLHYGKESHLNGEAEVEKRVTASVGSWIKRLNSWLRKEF


Biological target: T1, FtsA
Assay: TIRF microscopy of FtsZ membrane recruitment on supported lipid bilayers

binding result	Binder
binds	^N-pepPBP1b (residues 1-64) peptide, N-terminal 6x-His tag, C-terminal cysteine, labelled with cyanine 5 (peptide) peptide: 6xHis-MAGNDREPIGRKGKPTRPVKQKVSRRRYEDDDDYDDYDDYEDEEPMPRKGKGKGKGRKPRGKRGC(sulfo‑cyanine5‑maleimide)
binds	Alexa Fluor 488-labeled FtsZ (natural protein, E. coli, UniProt P0A9A6 1-383, looked up, Alexa Fluor 488 label (site not stated)) MFEPMELTNDAVIKVIGVGGGGGNAVEHMVRERIEGVEFFAVNTDAQALRKTAVGQTIQIGSGITKGLGAGANPEVGRNAADEDRDALRAALEGADMVFIAAGMGGGTGTGAAPVVAEVAKDLGILTVAVVTKPFNFEGKKRMAFAEQGITELSKHVDSLITIPNDKLLKVLGRGISLLDAFGAANDVLKGAVQGIAELITRPGLMNVDFADVRTVMSEMGYAMMGSGVASGEDRAEEAAEMAISSPLLEDIDLSGARGVLVNITAGFDLRLDEFETVGNTIRAFASDNATVVIGTSLDPDMNDELRVTVVATGIGMDKRPEITLVTNKQVQQPVMDRYQQHGMAPLTQEQKPVAKVVNDNAPQTAKEPDYLDIPAFLRKQAD
